Measured values taken from patent publication US20240239887A1 (SUZHOU KANOVA BIOPHARMACEUTICAL, published 2024).

T1: TIGIT (SPR analyte) (human, UniProt Q495A1 22-141, limits assumed)
T1 construct: the text says only 'TIGIT was used as the analyte'; The construct is not described; also called human TIGIT
T1 sequence (looked up): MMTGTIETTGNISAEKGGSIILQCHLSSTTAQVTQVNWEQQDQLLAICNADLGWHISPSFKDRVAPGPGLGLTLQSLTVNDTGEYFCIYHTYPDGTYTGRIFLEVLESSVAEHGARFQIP

T2: human TIGIT/mIgG2aFc recombinant protein (human, UniProt Q495A1 22-141)
T2 construct: range 22-141; In-house production; also called TIGIT/mIgG2aFc protein; human TIGIT/mIgG2aFc protein; not shown: mouse IgG2a Fc
T2 sequence (looked up): T1 sequence (looked up)

T3: full-length human TIGIT on Jurkat/TIGIT cells (human, UniProt Q495A1 22-244)
T3 construct: whole, on cells; also called Human TIGIT-expressing Jurkat cells; TIGIT expressed on cell surface
T3 sequence (looked up): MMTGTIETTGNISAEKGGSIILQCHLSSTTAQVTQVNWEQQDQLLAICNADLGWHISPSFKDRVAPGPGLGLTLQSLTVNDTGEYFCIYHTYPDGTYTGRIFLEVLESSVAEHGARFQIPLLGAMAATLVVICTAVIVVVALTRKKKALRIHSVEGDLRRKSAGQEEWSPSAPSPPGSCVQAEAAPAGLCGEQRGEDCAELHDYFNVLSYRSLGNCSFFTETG

B1: VH3 + VL3 (antibody, human IgG1, kappa, V domains shown)
VH: QVQLVQSGAEVKKPGASVKVSCKASGYTFSRYWIEWVRQAPGQGLEWMGEIFPGSGGTNYNEKFKGRVTMTRDTSTSTVYMELSSLRSEDTAVYYCARHLGALDYWGQGTLVTVSS
VL: EIVLTQSPGTLSLSPGERATLSCSASSSVSYIHWYQQKPGQAPRLLIYRTSNLASGIPDRFSGSGSGTDFTLTISRLEPEDFAVYYCQQYHSNPWTFGGGTKLEIKR
notes: Humanized full-length IgG; also called HC2 + LC2
B2: anti-TIGIT antibody VH2+VL4 (antibody, human IgG1, kappa)
heavy: not shown
light: DIVMTQSPDSLAVSLGERATINCSASSSVSYIHWYQQKPGQPPKLLIYRTSNLASGVPDRFSGSGSGTDFTLTISSLQAEDVAVYYCQQYHSNPWTFGGGTKLEIKRTVAAPSVFIFPPSDEQLKSGTASVVCLLNNFYPREAKVQWKVDNALQSGNSQESVTEQDSKDSTYSLSSTLTLSKADYEKHKVYACEVTHQGLSSPVTKSFNRGEC
notes: Biotin-labeled in the cynomolgus TIGIT flow cytometry assay; also called HC1 + LC3
B3: VH3 + VL4 (antibody, human IgG1, kappa, V domains shown)
VH: B1 VH
VL: DIVMTQSPDSLAVSLGERATINCSASSSVSYIHWYQQKPGQPPKLLIYRTSNLASGVPDRFSGSGSGTDFTLTISSLQAEDVAVYYCQQYHSNPWTFGGGTKLEIKR
notes: Humanized full-length IgG; also called HC2 + LC3
B4: Chimeric VH+VL (Parental mouse VH+VL combined with human Fc) (antibody, human IgG1, kappa, V domains shown)
VH: QVQLQQSGAELMKPGASVKISCKATGYTFSRYWIEWVKQRPGHGLEWIGEIFPGSGGTNYNEKFKGKATFTADTSSNTAYMQLTSLTSEDSAVYYCARHLGALDYWGQGTSVTVSS
VL: QIVLTQSPAIMSASPGEKVTISCSASSSVSYIHWYQQKAGSSPKPWIYRTSNLASGVPARLSGSGSGTSYFLTISSMEAEDAATYYCQQYHSNPWTFGGGTKLEIKR
notes: also called chimeric antibody
B5: VH4 + VL2 (antibody, human IgG1, kappa, V domains shown)
VH: EVQLVQSGAEVKKPGESLKISCKGSGYTFSRYWIEWVRQMPGKGLEWMGEIFPGSGGTNYNEKFKGQVTISADKSISTAYLQWSSLKASDTAMYYCARHLGALDYWGQGTLVTVSS
VL: DIQMTQSPSSLSASVGDRVTITCSASSSVSYIHWYQQKPGKAPKLLIYRTSNLASGVPSRFSGSGSGTDFTLTISSLQPEDFATYYCQQYHSNPWTFGGGTKLEIKR
notes: Humanized full-length IgG; also called HC3 + LC1

molecular target: T1, TIGIT (SPR analyte); test: SPR (Biacore 8K), antibody captured through Fc, TIGIT as analyte
Method: TIGIT was used as the analyte. The surface was regenerated before the injection of another antibody. The process was repeated until all antibodies are analyzed. The off-rates of antibodies were obtained from fitting the experimental data locally to 1:1 interaction model using the Biacore 8K evaluation software. The antibodies were ranked by their dissociation rate constants (off-rates, kd) (Table 1). Based on the ranking result, the top 4 clones were selected.

Binder | Kd | koff | kon
B1 | 0.111 nM | 3.25e-05 s⁻¹ | 294000 M⁻¹ s⁻¹
B2 | 0.101 nM | 4.47e-05 s⁻¹ | 444000 M⁻¹ s⁻¹
B3 | 0.11 nM | 4.38e-05 s⁻¹ | 396000 M⁻¹ s⁻¹
B4 | 0.179 nM | 5.56e-05 s⁻¹ | 310000 M⁻¹ s⁻¹
B5 | 0.122 nM | 4.97e-05 s⁻¹ | 407000 M⁻¹ s⁻¹

molecular target: T2, human TIGIT/mIgG2aFc recombinant protein; test: ELISA, plate coated with human TIGIT/mIgG2aFc, anti-human IgG-HRP detection
Method: MaxiSorp 96-well plates (NUNC #449824) were coated with 2 μg/mL human TIGIT/mIgG2aFc protein (in-house production, the method is well known in the art) in 1× PBS (50 μL/well). Plates were incubated at 4° C. overnight. Coating solution was removed and plates were washed once with 200 μL/well PBST (1× PBS containing 0.05% tween-20). Then 200 μL/well blocking buffer (1× PBS with 0.05% tween-20, 3% BSA) was added and incubated at room temperature for 1 hour. Blocking buffer was removed and plates were washed three times with 200 μL/well PBST. Antibody VH2+VL4 (produced in Example 2) and human IgG1 isotype control (hIgG1, Sigma #I5154-1MG) was diluted by 1× PBS and added to plates (50 μL/well). Plates were incubated at room temperature for 2 hours. Antibodies in the wells were removed and plates were washed three times with 200 μL/well PBST. Goat anti-human IgG(H&L)-HRP secondary antibody (Jackson Immuno Research #109-035-088) was diluted 1:5000 in 1× PBS and added to each well (50 μL/well). Plates were incubated at room temperature for 1 hour. Secondary antibody was removed and plates were washed five times with 200 μL/well PBST. 50 μL/well TMB (eBioscience #85-00-4201-56) was added and plates were incubated at room temperature for several minutes. Then 50 μL/well 2N H₂SO₄ was added to stop the reaction. Optical density was measured at 450 nm.

Binder | EC50
B2 | 0.47 nM

molecular target: T3, full-length human TIGIT on Jurkat/TIGIT …; test: flow cytometry on Jurkat/TIGIT cells, Alexa Fluor 594 goat anti-human IgG secondary antibody, readout % of bound cells
Method: Jurkat/TIGIT cells were incubated with different concentrations of anti-TIGIT antibody VH2+VL4 or human IgG1 isotype control at 4° C. for 30 minutes. Then cells were washed once by FACS buffer (PBS with 2% FBS) and incubated with Alexa Fluor 594 AffiniPure Goat Anti-human IgG secondary antibody (Jackson ImmunoResearch #109-585-088) at 4° C. for 30 minutes. After washed once by FACS buffer, cells were resuspended in 200 μL FACS buffer. The cells after staining were analyzed by BD LSRFortessa Flow Cytometer.

Binder | EC50
B2 | 1.13 nM

molecular target: T4, full-length cynomolgus TIGIT on 293T cells (cynomolgus, UniProt A0A7N9I9V4 89-312); test: flow cytometry on 293T cells transfected with cynomolgus TIGIT, biotin-labeled antibody detected with Brilliant Violet 421 streptavidin, readout % of bound cells
T4 construct: whole, on cells; also called cynomolgus-expressing 293T cells
Method: A DNA encoding full-length cynomolgus TIGIT (NCBI Accession No: XP_015300911.1) was cloned into pcDNA3.4 vector (Invitrogen #A14697) and transfected into 293T cells (Cell Bank, Chinese Academy of Sciences, #SCSP-502) by using Polyethylenimine Max reagent (Polysciences #24765-2). 48 hours post-transfection, cynomolgus-expressing 293T cells were incubated with different concentrations of biotin-labeled (Thermo #21338) anti-TIGIT antibody VH2+VL4 at 4° C. for 20 minutes. Then cells were washed once by FACS buffer (PBS with 2% FBS) and incubated with Brilliant Violet 421 Streptavidin (Biolegend #405225) at 4° C. for 30 minutes. After washed once by FACS buffer, cells were resuspended in 200 μL FACS buffer. The cells after staining were analyzed by BD FACSCelesta Flow Cytometer.

T4 sequence (A0A7N9I9V4 entry or part of it): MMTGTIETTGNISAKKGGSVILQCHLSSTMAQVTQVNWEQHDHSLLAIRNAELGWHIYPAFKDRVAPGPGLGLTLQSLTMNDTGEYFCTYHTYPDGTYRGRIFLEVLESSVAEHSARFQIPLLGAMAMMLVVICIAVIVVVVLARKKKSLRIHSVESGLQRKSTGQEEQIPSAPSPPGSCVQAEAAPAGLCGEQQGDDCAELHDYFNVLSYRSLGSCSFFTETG

Binder | EC50
B2 | 0.02 nM
